The target of the test is H3·H4 heterodimer (human H3.3 and H4) (human) (UniProt P84243). The test can be described thus: high-speed atomic force microscopy; purified nucleosomes, hexasomes and de novo tetrasomes on 601 DNA (200W100), 1.5-3.5 nM, on bare mica, imaged in 10-fold-diluted buffer A at 1-2 fps, room temperature; histone core volume tracked over time; DNA present.

Consider “H3·H4 heterodimer (human H3.3 and H4) (from UniProt P84243 1-136; P62805 1-103) (complex)”, for which the observation time until one H3·H4 dimer was dislodged from a de novo tetrasome worked out at 2 min.

Values taken from article PMC10823521.
